Measurements published in the RNAGym collection of RNA variant scans (doi:10.1021/acssynbio.7b00057).

B1: Pistol ribozyme (parent)
chain: GGGUCGUUGUUCCAUAAUCGCGUGGAUAUGGCACGCAAGUUUCUACCGGGCACCGUAAAUGUCCGACUGGAGCCGUUCGGGCGGCUAUAAACAGACCUCAGGCCCGAAGCGUGGCGGCACCUGCCGCCGGUGGUAAAAAAGAUCGGAAGAGCACACGUCU

Variants of: B1
Experiment: aptazyme ON/OFF ratio, guanine; higher = stronger switching; co-transcriptional cleavage with and without guanine

Variant	aptazyme ON/OFF ratio
U8G G9C U10C U11A C12U C13A	1.04
U7G G9U U10A C12U C13U	1.15
U7C U8C U10G U11G C12A C13U	1.13
U7C U8C G9C U10C U11A C13A	1.14
U7G U11G C12G C13A	1.09
U7A G9A C12A C13A	1.13
U7G U8G C12G	1.38
U7C U8G G9C U10G U11C C12A C13A	1.31
U7A U8A G9A U10A U11C C12A C13G	1.14
U7A U8C G9A C12G	1.43
U8A G9C U10G U11A C13U	1.02
U7A U8C G9U U10A U11A C12A C13A	1.17
U7C G9C U10G U11A C12G	1.23
U7C U8A G9A U10A C12G C13A	1.23
U7C G9C U10C U11C C12G C13G	1.07
U7A U8C G9C U11G C12A C13U	1.11
U7A U8G G9U U10A U11A C12U C13U	1.2
U7G U8G G9A U10G U11G C12G C13U	1.11
U7C U8C G9C U11A C12U C13A	1.06
U7C U8C G9C U11A C12U C13G	1.16
U7G U8C U10C U11A C12G C13G	1.21
U7G U8G G9C U10C U11G C13A	1.38
U8A G9U U10G U11C C12U C13A	1.04
U8A U10G U11A C12U C13U	1.31

Variant	aptazyme ON/OFF ratio
U7G G9U U10A U11C C12U	1.32
U8C G9A U10A U11A C13G	1.07
U7C U8C G9C U10G U11A C12A C13U	1.11
U7C U8C G9C U10G U11A C12A C13A	1.16
U7A U8A G9U U10A U11C C12U C13A	1.06
U8G G9U U10A C12G C13U	1.23
U7C U8C G9A U10A U11C C12U C13A	1.15
U7A U8G U11A C12G C13A	1.11
U7C U8C G9U U11C C12U C13A	1.03
U7A U8G G9A U10A U11G C12U C13A	1
U7C U11A C12A C13U	1.28
U7C U10A U11G C12G C13G	1.16
U7C U8C G9A U10C U11G C12G C13U	1.17
U8C G9A U10A C12U	1.31
U7C U8C U11G C12U C13G	1.11
U7C U8A G9C U10C U11C C12U	1.02
U8G G9C U10C U11C C12G C13U	1.08
U7A U8A U11G C12A	1.13
U7A U8G U10A U11C C13U	1.05
U7A U10C U11A C12A	1.23
U7C U11G C12A C13A	1.16
U7A U8C G9C U11C C12U	1.03
U7G U8C U10G U11A C12G C13A	1.09
U7A U8C G9C U10C U11C C12U C13A	1.02

Variant	aptazyme ON/OFF ratio
U7A U8G G9C U10A U11C C12A C13U	1.5
U7G G9U U10A U11G C12G	1.26
U7G U8G G9U U11C C12A	1.8
U7G U11C C12A C13A	1.12
U7C U8A G9U U10G U11C	1.07
U8G G9C U10A U11G C12G C13U	1.22
U8G G9C U10A U11G C12G C13A	1.35
U10A C12A C13G	1.19
U7G U8A G9C U11A C12G C13U	1.04
U7G U8A U10A C12U C13A	1.24
U7C U8C G9C U10A U11G	1.32
U7G U8G G9C U11A C12A C13U	1.16
U7G U8C G9A U10G U11A C13A	1.05
U7C U8C G9A U10G C12A	1.21
U7C U8C G9U U11C C12A C13G	1.04
U8G G9U U10A U11A C12A C13U	1.22
U8C U10A C12A C13U	1.18
U8C G9A U10G U11A C12G C13G	1.35
U7A G9C U10C C12G C13G	1.07
U7A G9C U10C C12G C13A	1.03
U8A U10C C12G C13A	1.19
U8C G9C U10G U11G C12U C13A	1.07
U7C U8G G9U U10A U11A C12A	1.25
U7G U8A G9U U10G U11A C12A C13A	1.12

Variant	aptazyme ON/OFF ratio
U7A U8C U10C U11A C12A C13U	1.21
U7C U8A G9U U10A U11C C12U	1.07
U7C U8A G9U C12G C13U	1.22
U7G U8G G9U U10A U11G C13U	1.12
U8C G9C U10G U11C C12U C13G	1.09
U8C G9C U10C U11C C12G C13A	1.12
U7G U8C U10C U11C C13A	1.04
U7G U8A G9U U10G C12U C13G	1.03
U7G U8G G9A U10C U11G C13U	1.19
U7A G9C U10A C13U	1.18
U7G U8A U10C U11G C12U	1.32
U7G U8G U11C C12U C13G	1.3
U7C U8G G9C U10A U11A C12G C13A	1.12
G9C U10G U11A	1.08
G9U U10A U11G C12U C13G	1.47
U7C U8G G9A U10C U11A C12A C13U	1.07
U7C U8A G9U U10C U11C C12G C13U	1.07
U7A U8G G9U U10A U11G C13G	1.12
U8G U11C C12G C13U	1.2
U7A U8A G9U U10C U11G C13U	1.14
U7A G9A U10C U11C C12A C13U	1.12
U7C U8A G9C U10A U11G C12A C13A	1.13
U7C U8C G9A C12A C13U	1.42
U7A U8A U10A U11C C12U C13G	1.1

Variant	aptazyme ON/OFF ratio
U7C U8G G9A U10C U11G C12U C13G	1.14
U7C U8C U10G U11A C12G C13G	1.11
U8C U10G U11A C12A	1.32
U7C U8A G9U U10C U11G C12G C13U	1.11
U7C U8G G9U U10A C12G C13G	1.18
U7C G9A U10C U11A C12G	1.14
U7C G9A C13U	1.17
U8A G9U U10A U11G C13A	1.23
U7C U8G G9A U11A C13G	1.07
U7C U8A G9C C13A	1.02
U7G U8G G9C U10C U11C C12U	1.18
U7C U8C G9U U11G C12G	1.19
U7C G9U U10G U11A C12U C13G	1.1
U8G G9U U10A U11C C12G	1.1
U7C U8G G9A U10C U11C C13A	1.02
U7A U8A G9U U10G C12U C13G	1.26
U8C U10C U11C C12U C13G	1.26
U7A U8A G9C C12G C13A	1.19
U7A U8A U10A U11A C12A C13A	1.12
U7G U8G G9U U10G U11C C13U	1.11
U7G G9U U11G C12U C13U	1.44
U7G G9A U10G U11A C12A C13G	1.05
U7G U8G U10A C13U	1.36
U7G U10G U11A C12A C13G	1.09

Variant	aptazyme ON/OFF ratio
U7G U8A G9C U10A C13U	1.02
U7C G9A U10C U11G C12A C13G	1.15
U7G G9U C13U	1.45
U7C G9C U10A U11A	1.05
U7C U8G G9U U11G C12A C13G	1.24
U8C G9U U11G C13G	1.02
U8A G9A U10C U11A C13U	1.15
U8C U11C C12G C13G	1.36
U7G G9C U10G U11C C12A C13U	1.33
U7C U8A G9U U10A C12U C13U	1.19
U7C G9A U10C U11G C12G C13U	1.09
U7G U8C G9C U11A C12A C13G	1.14
U7A U8A U11A C12U C13U	1.25
U7C U8G G9C U10A U11G C13U	1.18
U7G U8C G9C U11C C13U	1.38
U10A U11A C12G C13U	1.23
U7G U8G U10A C12G C13U	0.978
U7A U8G U10A C12G	1.22
U7C U8G G9U U10A C12G	1.18
U7G U8C G9U U11A C12A C13U	1.5
U8C G9U C12G C13A	1.21
U7G G9C U10C U11A C12G C13A	1.13
U7C U8A G9U U10A U11A C12G	1.17
U7G U8C U11A C12A	1.37

Variant	aptazyme ON/OFF ratio
U7G U8A U10C U11C C13U	1.01
U7C U8A U10G U11G C12G C13G	1.17
U7A U8G U11A C12A C13A	1.41
G9C U10G U11G C12G C13U	1.1
U7A U8A G9U U10C C12G C13U	1.4
U8A G9A U10G U11C C12U	1.07
U7C U8G G9A U10C U11G C12G C13A	1.23
U7A U8C U10G U11A C12G	1.37
U7A U8A G9A U10A U11G C13G	1.18
U7C G9U U10A U11A	1.42
U7G G9C U10C C13G	1.09
U8A G9U U10A C13U	1.2
U7A U8G G9C U10G U11A C12U C13U	1.42
U7A U8G G9U U11G C13G	1.4
U7A G9A C12A	2.25
U7A U8C G9U U10A U11G C12G C13A	1.2
U8G G9C U10G U11A C13A	1.05
U8C G9C U10A U11C C12G C13A	1.23
U7A U8C G9C U11A C13A	1.05
U8G U11G C12G C13A	1.08
U8C U10A U11G C12U C13U	1.27
U7C U8A G9A U10C C12U	1.58
U7A U8G G9C U10G U11C C12U C13U	1.21
